Experimental data taken from patent US20140199327A1, “METHODS OF PROMOTING DIFFERENTIATION” (Genentech, Inc., priority 2011, published 2014).

Target: T1, USP45-Flag (human USP45 with C-terminal Flag epitope) (human, UniProt Q70EL2 1-814, limits assumed)
T1 sequence (looked up): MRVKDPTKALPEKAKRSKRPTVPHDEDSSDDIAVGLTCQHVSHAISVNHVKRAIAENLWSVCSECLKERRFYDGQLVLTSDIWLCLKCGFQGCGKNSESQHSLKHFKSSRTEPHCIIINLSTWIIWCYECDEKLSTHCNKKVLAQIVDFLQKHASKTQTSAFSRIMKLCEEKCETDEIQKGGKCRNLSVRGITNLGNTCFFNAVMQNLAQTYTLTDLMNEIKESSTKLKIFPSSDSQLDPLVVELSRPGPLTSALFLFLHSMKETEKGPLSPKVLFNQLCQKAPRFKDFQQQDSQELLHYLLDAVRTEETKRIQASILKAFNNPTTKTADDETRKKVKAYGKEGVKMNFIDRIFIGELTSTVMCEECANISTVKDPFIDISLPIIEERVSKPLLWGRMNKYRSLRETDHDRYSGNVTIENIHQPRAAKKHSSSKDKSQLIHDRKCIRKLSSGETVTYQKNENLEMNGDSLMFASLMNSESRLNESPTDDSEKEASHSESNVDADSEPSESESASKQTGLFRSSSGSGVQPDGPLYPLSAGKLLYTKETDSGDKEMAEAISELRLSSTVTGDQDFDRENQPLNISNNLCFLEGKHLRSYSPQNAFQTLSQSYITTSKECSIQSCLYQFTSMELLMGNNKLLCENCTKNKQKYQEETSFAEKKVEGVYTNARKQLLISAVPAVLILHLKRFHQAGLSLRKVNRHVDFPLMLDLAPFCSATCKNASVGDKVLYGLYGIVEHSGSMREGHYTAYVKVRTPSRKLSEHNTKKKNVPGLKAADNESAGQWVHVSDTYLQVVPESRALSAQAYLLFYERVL
Experiment: Flag immunoprecipitation of DUBs from 293T cells cotransfected with ID2, MG-132 treated (FIG. 2B)
Experimental: FIG. 2. […] (A) Western blot (WB) analysis of 293T transfected with Flag-tagged deubiquitinases (DUBs) or an empty vector (−). Where indicated, cells were treated with […] MG-132 for 4 hr. (B) Flag-tagged DUBs were immunoprecipitated (IP) from 293T cells cotransfected with ID2 and treated with […] MG-132 for 6 hr.

B1: ID2 (co-transfected / co-expressed in 293T cells) (other)
chain: MKAFSPVRSVRKNSLSDHSLGISRSKTPVDDPMSLLYNMNDCYSKLKELVPSIPQNKKVSKMEILQHVIDYILDLQIALDSHPTIVSLHHQRPGQNQASRTPLTTLNTDISILSLQASEFPSELMSNDSKALCG
notes: ID2 was amplified from Jurkat-derived cDNA; The methods describe only a C-terminal Flag version in pRK2001
  binding result: no binding
